Measured values reported in patent US20200023071A1 (INNATE PHARMA, published 2020).

T1: human MICA endogenously expressed on the surface of HCT116 colon carcinoma cells (human, UniProt Q29983 24-383)
T1 sequence (looked up): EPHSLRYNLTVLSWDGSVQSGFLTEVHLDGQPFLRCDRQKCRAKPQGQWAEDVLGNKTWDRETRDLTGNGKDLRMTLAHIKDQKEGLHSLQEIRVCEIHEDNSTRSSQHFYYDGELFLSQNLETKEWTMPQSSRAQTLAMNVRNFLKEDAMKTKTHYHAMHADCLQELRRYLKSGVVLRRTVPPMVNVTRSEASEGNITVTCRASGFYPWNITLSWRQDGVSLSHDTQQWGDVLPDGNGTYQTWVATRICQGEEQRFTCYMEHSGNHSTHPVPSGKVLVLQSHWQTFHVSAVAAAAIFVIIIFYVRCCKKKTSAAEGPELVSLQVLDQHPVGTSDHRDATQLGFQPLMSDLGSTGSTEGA

B1: chimeric antibody 19E9 (human IgG1 constant regions) conjugated to a PBD dimer, DAR about 2 (antibody, V domains shown)
VH: DVQLQESGPGLVKPSQSLSLTCTVTGYSITSDYAWNWIRQFPGNKLEWMGFVSYSGTTKYNPSLKSRISITRDTSENQFFLQLNSVTSEDTATYYCARGYGFDYWGQGTTLTVSS
VL: EIVLTQSPTTMAASPGEKITITCSATSSISSIYFHWYQQRPGFSPKLLIYRTSNLASGVPARFSGSGSGTSYSLTIGTMEAEDVATYYCQQGTTIPFTFGSGTKLEIK
modifications: PBD dimer via NH2-PEG-N3 / DBCO-val-ala linker on Q295 (Kabat EU numbering) of each heavy chain constant region
B2: chimeric antibody 9C10 (human IgG1 constant regions) conjugated to a PBD dimer, DAR about 2 (antibody, V domains shown)
VH: QVQLQQPGAELVRPGTSVNLSCKASGYSFTRYWMNWVKQRPGQGLEWIGMIHPSDSETRLNQKFKDKATLTVDKSSSTAYMQLSSPTSEDSAVYYCGYGNFFYVMDYWGQGTSVTVSS
VL: DILLTQSPAILSVSPGERVSFSCRASQSIGTSIHWYQQRTNGSPRLLIKFASESISGIPSRFSGSGSGTDFTLNINSVESEDIADYYCQQSNFWPFTFGSGTKLEVK
modifications: PBD dimer via NH2-PEG-N3 / DBCO-val-ala linker on Q295 (Kabat EU numbering) of each heavy chain constant region
B3: chimeric antibody 6E4 (human IgG1 constant regions) conjugated to a PBD dimer, DAR about 2 (antibody, V domains shown)
VH: EVQLVESGGALVKPGGSLKLSCAASGFTFSYYAMSWVRQTPEKRLEWVATISRGGNYIYYTDSVKGRFTISRDNAKNTLYLQMTSLRSEDTAMFYCASISDYDGAWLAYWGQGTLVTV
VL: DVLMTQTPLSLPVSLGDQASISCRSSQSIIHTNGNTYLEWYLQKPGQSPKLLIYKISNRFSGVPDRFSGSGSGTDFTLKISRVEAEDLGVYYCFQGSHVPWTFGGGTKLEIK
modifications: PBD dimer via NH2-PEG-N3 / DBCO-val-ala linker on Q295 (Kabat EU numbering) of each heavy chain constant region
B4: chimeric antibody 18E8 (human IgG1 constant regions) conjugated to a PBD dimer, DAR about 2 (antibody, V domains shown)
VH: DVQLQESGPDLVNPSQSLSLICTVTGYSITSDYSWHWIRQFPGNKLEWMGNIHYSGRINYNPSLRSRISITRDTSKNQFFLQLISVTTEDTATYYCATRRTFGNFEDYWGQGTTLTVSS
VL: QIVLSQSPATLSVSPGEKVTMTCRSSSSVNYMHWYQQKPGSSPKPWIYATSTLASGVPARFSGSGSGTSYSLTISRVEAEDAATYYCQQWSSNPLTFGAGTKLELK
modifications: PBD dimer via NH2-PEG-N3 / DBCO-val-ala linker on Q295 (Kabat EU numbering) of each heavy chain constant region

Target: T1, human MICA endogenously expressed on …
Test: cell-based or functional assay

Row | Binder | EC50 (also referred to as IC50) of cytotoxicity towards HCT116 cells, cell confluence over one week (IncuCyte) [ng/mL]
1 | B1 | 0.475
2 | B2 | 7.77
3 | B3 | 2.25
4 | B4 | 3.77
